{"source": "paper PMC7529893", "about": "“Structural basis for substrate recognition and chemical inhibition of oncogenic MAGE ubiquitin ligases” (Nature Communications, 2020)", "key": {"[1]": {"biological_target": "T1, GST-MAGE-A11 MHD (Homo sapiens, UniProt P43364)", "T1 construct": "GST-MAGE-A11 MHD (human MAGE-A11 MHD amino acid 218-429); made in house; host or cells: E. coli BL21(DE3)", "T1 sequence (P43364 218-429)": "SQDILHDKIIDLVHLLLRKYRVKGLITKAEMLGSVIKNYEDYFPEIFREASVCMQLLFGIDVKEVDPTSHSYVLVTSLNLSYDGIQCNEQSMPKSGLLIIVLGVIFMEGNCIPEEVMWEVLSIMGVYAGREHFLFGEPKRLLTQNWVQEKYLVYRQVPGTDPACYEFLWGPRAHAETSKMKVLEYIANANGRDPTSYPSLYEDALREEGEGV", "test": "TR-FRET competition assay of PCF11 peptides against GST-MAGE-A11 MHD / FAM-PCF11_4", "conditions": "Fig. 1c, panel of eight PCF11 peptides; read-out: IC50, binding of PCF11 peptide to GST-MAGE-A11 by TR-FRET", "protocol": "The TR-FRET assay buffer with a formula of 50 mM Tris pH 7.5, 20 mM MgCl2, 0.1 mg/ml BSA and 1 mM DTT was freshly prepared before each experiment. All TR-FRET assays were performed in black 384-well plates with 20 µl/well assay volume in the TR-FRET assay buffer at room temperature (~25 °C). All peptides or compounds were solubilized in DMSO. To test the competitive activity of peptides or compounds against the interaction between GST-MAGE-A11 MHD and FAM-PCF11_4 peptide, 10 µl/well peptide or compound at specified concentration was dispensed into a black 384-well low volume plate, followed by 5 µl/well FAM-PCF11_4 (800 nM), 5 µl/well Tb-anti-GST (20 nM), and GST-MAGE-A11 MHD (20 nM). The assay components in each well was then mixed by shaking the plate on an IKA MTS 2/4 digital microtiter plate shaker (IKA Works; Wilmington, NC, USA) for 1 min. The plate was further centrifuged in an Eppendorf 5810 centrifuge with an A-4-62 swing-bucket rotor (Eppendorf AG, Hamburg, Germany) at 201 g for 30 s. The plate was then incubated for 90 min with a lid to avoid light exposure to the assay components. After incubation, the fluorescent emission signals at 520 nm and 490 nm channels of individual wells were measured with a PHERAstar FS plate reader (BMG Labtech; Durham, NC, USA) by using a 340 nm excitation filter, 100 µs delay time, and 200 µs integration time. The TR-FRET fluorescence emission ratio (TR-FRET signal) for each well was presented as 10,000 × 520 nm/490 nm, which was used directly for curve fitting, or further converted to %Inhibition based on the respective positive and negative controls. The graphic software GraphPad Prism 4.81 (GraphPad Software; La Jolla, CA, USA) was used to generate curves and derive IC50 values of tested peptides or compounds, if applicable.\nTR-FRET inhibitory activity characterization of a panel of PCF11 peptides against the interaction between GST-MAGE-A11 MHD and FAM-PCF11_4 was performed as follows. In a 20-µl/well assay volume, dilutions of PCF11_1 to PCF11_8 peptides (concentrations ranged from 3.1 nM to 100 µM for peptides PCF11_4, PCF11_5, PCF11_6 and PCF11_8 in a 1-to-2 dilution pattern for 16 concentration levels, and ranged from 48.9 nM to 100 µM for peptides of PCF11_1, PCF11_2, PCF11_3, and PCF11_7 in a 1-to-2 dilution pattern for 12 concentration levels), 200 nM FAM-PCF11_4, 5 nM Tb-anti-GST and 5 nM GST-MAGE-A11 were mixed together and incubated for 90 min before the TR-FRET signal for each well was measured. The final DMSO concentration was 1.1% (v/v). […] The signal of each peptide-treated well (Signalpeptide) was normalized to the positive and negative controls to derive %inhibition of the peptide at a specific concentration with Eq. (1). Where applicable, the %Inhibition data were fit into a Sigmoidal dose response equation to derive IC50 values.1 %Inhibition=100%−100%×(Signalpeptide−SignalDMSOwithoutGST-MAGEA11)/SignalDMSO−SignalDMSOwithoutGST-MAGEA11."}, "[2]": {"biological_target": "T2, GST-MAGE-A11 MHD (human MAGE-A11 MHD amino acid 218-429) (human, UniProt P43364 218-429)", "T2 construct": "also called recombinant GST-MAGE-A11; source: E. coli BL21(DE3), purified (GSTrap, Resource Q)", "T2 sequence (looked up)": "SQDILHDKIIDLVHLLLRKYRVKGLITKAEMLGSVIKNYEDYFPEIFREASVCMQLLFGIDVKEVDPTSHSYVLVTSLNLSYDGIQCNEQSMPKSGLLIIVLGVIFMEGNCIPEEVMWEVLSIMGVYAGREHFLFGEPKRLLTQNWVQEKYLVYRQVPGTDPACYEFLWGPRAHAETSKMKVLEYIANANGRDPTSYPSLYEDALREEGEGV", "test": "AlphaScreen or HTRF; TR-FRET competition: unlabelled peptide titrated against 200 nM FAM-PCF11_4, 5 nM Tb-anti-GST and 5 nM GST-MAGE-A11 MHD; 50 mM Tris pH 7.5, 20 mM MgCl2, 0.1 mg/ml BSA, 1 mM DTT; room temperature (~25 °C), 90 min", "conditions": "both partners purified"}, "[3]": {"biological_target": "T3, MAGE-A11 MHD (218-429), as part of the crystallised fusion (human, UniProt P43364 218-429)", "T3 construct": "In the crystal it follows PCF11 677-701 and the linker GGSGRP (whole chain: m25); also called MAGE-A11 MHD (S218 to C-terminus); source: E. coli BL21(DE3), purified, on one chain with the PCF11 degron", "T3 sequence (looked up)": "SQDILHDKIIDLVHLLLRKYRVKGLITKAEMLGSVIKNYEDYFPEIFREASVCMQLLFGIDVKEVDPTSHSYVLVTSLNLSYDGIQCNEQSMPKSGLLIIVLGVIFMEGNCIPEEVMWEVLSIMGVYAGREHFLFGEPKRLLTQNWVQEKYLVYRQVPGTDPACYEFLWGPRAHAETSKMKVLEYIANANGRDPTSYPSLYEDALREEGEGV", "test": "crystal structure; PCF11 677-701 fused by GGSGRP to the N-terminus of MAGE-A11 MHD 218-429; sitting drop, 20 °C, 0.2 M Na acetate, 0.1 M Bis Tris propane pH 7.5, 20% PEG 3350; four protomers in the P 1 cell", "conditions": "both partners purified"}, "[4]": {"biological_target": "T4, GST-MAGE-A11 MHD (human MAGE-A11 MHD amino acid 218-429) (human, UniProt P43364 218-429)", "T4 chain": "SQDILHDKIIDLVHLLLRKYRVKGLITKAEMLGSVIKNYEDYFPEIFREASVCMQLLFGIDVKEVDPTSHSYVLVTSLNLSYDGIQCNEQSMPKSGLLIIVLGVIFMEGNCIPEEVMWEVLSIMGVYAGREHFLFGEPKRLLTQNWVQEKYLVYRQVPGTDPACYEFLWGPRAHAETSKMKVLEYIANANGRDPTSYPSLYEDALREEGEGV", "test": "FRET"}, "[5]": {"biological_target": "T4, GST-MAGE-A11 MHD (human MAGE-A11 MHD …)", "test": "FRET"}}, "note": "Where “and” joins values, the source holds several entries; their conditions need not be identical. Equal values may be shown once. Square brackets hold non-standard residues; d marks the D form. Ends that are not written are not given here. Peptide text beside a SMILES is read from it. Phe(4-CN) = N#Cc1ccc(C[C@H](N)C(=O)O)cc1; Phe(3-Me) = Cc1cccc(C[C@H](N)C(=O)O)c1"}
{"molecule": "CC[C@H](C)[C@H](NC(=O)[C@H](CCC(N)=O)NC(=O)[C@H](Cc1c[nH]cn1)NC(=O)[C@@H](NC(=O)[C@@H](NC(=O)[C@@H](NC(=O)[C@H](CC(C)C)NC(=O)[C@H](Cc1ccccc1)NC(=O)[C@H](CC(=O)O)NC(=O)[C@H](CC(=O)O)NC(=O)[C@@H](N)CCC(N)=O)C(C)C)C(C)C)C(C)C)C(=O)N[C@@H](CCCNC(=N)N)C(=O)N[C@@H](CCC(N)=O)C(=O)N[C@@H](CC(C)C)C(=O)N[C@@H](Cc1ccccc1)C(=O)N[C@@H](CCC(N)=O)C(=O)N[C@@H](Cc1ccc(O)cc1)C(=O)N[C@@H](CCC(N)=O)C(=O)N[C@@H](CCC(=O)O)C(=O)NCC(=O)O", "note": "[PCF11_5] (H-QDDFLVVVHQIRQLFQYQEG-OH; N-terminus assumed)", "values": [{"measurement": "IC50", "setting": "[1]", "value": 77, "unit": "nM"}]}
{"molecule": "CC[C@H](C)[C@H](NC(=O)[C@H](CCC(N)=O)NC(=O)[C@H](Cc1c[nH]cn1)NC(=O)[C@@H](NC(=O)[C@@H](NC(=O)[C@@H](NC(=O)[C@H](CC(C)C)NC(=O)[C@H](Cc1ccccc1)NC(=O)[C@H](CC(=O)O)NC(=O)[C@H](CC(=O)O)NC(=O)[C@H](CCC(N)=O)NC(=O)[C@@H](NC(=O)[C@@H](NC(=O)[C@H](CCC(=O)O)NC(=O)CN)[C@@H](C)CC)[C@@H](C)O)C(C)C)C(C)C)C(C)C)C(=O)O", "note": "[PCF11_3] (H-GEITQDDFLVVVHQI-OH; N-terminus assumed)", "values": [{"measurement": "IC50", "setting": "[1]", "value": "> 50000", "unit": "nM"}]}
{"molecule": "CC[C@H](C)[C@H](N)C(=O)N[C@H](C(=O)N[C@@H](CCC(N)=O)C(=O)N[C@@H](CC(=O)O)C(=O)N[C@@H](CC(=O)O)C(=O)N[C@@H](Cc1ccccc1)C(=O)N[C@@H](CC(C)C)C(=O)N[C@H](C(=O)N[C@H](C(=O)N[C@H](C(=O)N[C@@H](Cc1c[nH]cn1)C(=O)N[C@@H](CCC(N)=O)C(=O)N[C@H](C(=O)N[C@@H](CCCNC(=N)N)C(=O)N[C@@H](CCC(N)=O)C(=O)N[C@@H](CC(C)C)C(=O)N[C@@H](Cc1ccccc1)C(=O)N[C@@H](CCC(N)=O)C(=O)N[C@@H](Cc1ccc(O)cc1)C(=O)N[C@@H](CCC(N)=O)C(=O)N[C@@H](CCC(=O)O)C(=O)NCC(=O)N[C@H](C(=O)N[C@@H](CCCNC(=N)N)C(=O)N[C@@H](CCC(=O)O)C(=O)O)C(C)C)[C@@H](C)CC)C(C)C)C(C)C)C(C)C)[C@@H](C)O", "note": "[PCF11_4] (H-ITQDDFLVVVHQIRQLFQYQEGVRE-OH; N-terminus assumed)", "values": [{"measurement": "IC50", "setting": "[1]", "value": 59, "unit": "nM"}]}
{"molecule": "FLVVVHQIRQL[Phe(4-CN)]Q (PCF11 degron, human; the phenylalanine at position 12 (F693) is 4-cyano-phenylalanine; also called 4-cyano-phenylalanine variant; source: synthetic peptide)", "note": "[PCF11 peptide (FLVVVHQIRQLF*Q) containing 4-cyano-phenylalanine at position 12]", "values": [{"measurement": "IC50", "setting": "[2]", "value": 663, "unit": "nM"}]}
{"molecule": "ITQDDFLVVVHQIRQLFQYQEGVRE (peptide, UniProt O94913 677-701, looked up, PCF11, human, amino acids 677-701; In the crystal it is joined by the linker GGSGRP to the N-terminus of m27 (whole chain: m25); also called PCF11 peptide; source: E. coli BL21(DE3), purified, on one chain with MAGE-A11 MHD)", "note": "[PCF11 degron peptide (human PCF11 amino acid 677-701), as part of the crystallised fusion]", "values": [{"measurement": "binding result", "setting": "[3]", "value": "binds"}]}
{"molecule": "FLVVVHQIRQLFQ (PCF11 degron, human; position +1 is F682 and position +12 is F693; also called model 13 amino acid PCF11 peptide degron; natural PCF11 degron peptide; source: synthetic peptide)", "note": "[PCF11 peptide (FLVVVHQIRQLFQ) containing phenylalanine at position 12]", "values": [{"measurement": "IC50", "setting": "[4]", "value": 60.4, "unit": "nM"}, {"measurement": "binding result", "setting": "[2]", "value": "binds"}]}
{"molecule": "FLVVVHQIRQLFQYQ (exact ends are only in Fig. 1b; 682-696 is inferred from 'three overlapping peptides centered on PCF11 amino acids 682-696' (the later 13-residue model peptide is 682-694))", "note": "[PCF11_6 peptide]", "values": [{"measurement": "IC50", "setting": "[5]", "value": "70 nM and 65 nM"}]}
{"molecule": "FLVVVHQIAQLFQYQ", "note": "[PCF11_6 peptide R690A]", "values": [{"measurement": "IC50", "setting": "[5]", "value": 15600, "unit": "nM"}]}
{"molecule": "FLVVVHQIRQL[Phe(3-Me)]Q (PCF11 degron, human; the phenylalanine at position 12 (F693) is 3-methyl-phenylalanine; also called 3-methyl-phenylalanine variant; source: synthetic peptide)", "note": "[PCF11 peptide (FLVVVHQIRQLF*Q) containing 3-methyl-phenylalanine at position 12]", "values": [{"measurement": "IC50", "setting": "[2]", "value": 1.7, "unit": "nM"}]}
{"molecule": "ALVVVHQIRQLFQYQ (same inferred limits as m7)", "note": "[PCF11_6 peptide F682A]", "values": [{"measurement": "IC50", "setting": "[5]", "value": 570, "unit": "nM"}]}
{"molecule": "FLVVVHQIRQAFQYQ", "note": "[PCF11_6 peptide L692A]", "values": [{"measurement": "IC50", "setting": "[5]", "value": 540, "unit": "nM"}]}
{"molecule": "FLVVVHQIRQLAQYQ", "note": "[PCF11_6 peptide F693A]", "values": [{"measurement": "IC50", "setting": "[5]", "value": 2140, "unit": "nM"}]}
{"molecule": "FLVVVHQARQLFQYQ", "note": "[PCF11_6 peptide I689A]", "values": [{"measurement": "IC50", "setting": "[5]", "value": 1020, "unit": "nM"}]}
